± gives the uncertainty stated by the source.

36 sequences from the supplement of paper PMC7877785 can be followed below.

The data set is described as follows: self-splicing fitness, log relative to wild type (ln ratio); higher = more splicing; Tetrahymena group I intron in knt gene, E. coli kanamycin selection, DiMSum; sequences stand for … in CUCUCU…GGAGGGAAAAGUUAUCAGGCAUGCACCUGGUAGCUAGUCUUUAAACCAAUAGAUUGCAUCGGUUUAAAAGGCAAGACCGUCAAAUUGCGGGAAAGGGGUCAACAGCCGUUCAGUACCAAGUCUCAGGGGAAACUUUGAGAUGGCCUUGCAAAGGGUAUGGUAAUAAGCUGACGGACAUGGUCCUAACCACGCAGCCAAGUCCUAAGUCAACAGAUCUUCUGUUGAUAUGGAUGCAGUUCACAGACUAAAUGUCGGUCGGGGAAGAUGUAUUCUUCUCAUAAGAUAUAGUCGGACCUCUCCUUAAUGGGAGCUAGCGGAUGAAGUGAUGCAACACUGGAGCCGCUGGGAACUAAUUUGUAUGCGAAAGUAUAUUGAUUAGUUUUGGAGUACUCGUGGUCG
In outline:
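DiMSum derived fitness as the error-weighted combination of fold changes across replicates, kanamycin versus no kanamycin, normalised to wild type. E. coli BL21(DE3) held the library, which randomised all eight P1ex-region intron nucleotides within the knt kanamycin-resistance gene on pET-22b(+). Six replicate transformations grew overnight at 37°C or 30°C on LB agar with or without 25 μg/mL kanamycin, also containing 100 μg/mL carbenicillin, 50 μM IPTG and 0.2% rhamnose, and pooled colonies were amplicon-sequenced on an Illumina HiSeq 2500.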

Regarding CGGAAGCAAUAUUACGAUUU, the “self-splicing fitness (ln)” value was -3.62 ± 0.2 (30 °C) and -1.51 ± 0.15 (37 °C).
Consider CGGAAGCAAUAUUACGCAAA, for which, where the note is “37 °C”, the “self-splicing fitness (ln)” value was -2.55 ± 0.33.
Regarding CGGAAGCAAUAUUACGCAAC, the “self-splicing fitness (ln)” value (30 °C) was -1.88 ± 0.29.
Consider CGGAAGCAAUAUUACGCACG, for which the “self-splicing fitness (ln)” value (37 °C) turned out to be 0.981 ± 0.23.
As to CGGAAGCAAUAUUACGCAGG, the “self-splicing fitness (ln)” value runs as follows: (30 °C) -1.73 ± 0.095; (37 °C) -1.57 ± 0.11.
As to CGGAAGCAAUAUUACGCCAA, the “self-splicing fitness (ln)” value was -2.25 ± 0.39 (30 °C) and -2.08 ± 0.4 (37 °C).
For the sequence CGGAAGCAAUAUUACGCCAG, the “self-splicing fitness (ln)” value was -0.858 ± 0.27 (30 °C) and -0.336 ± 0.26 (37 °C).
Taken in the same sequence, the figures for CGGAAGCAAUAUUACGCGAG were -1.19 ± 0.15 and -1.24 ± 0.27.
Turning to CGGAAGCAAUAUUACGCGCC, the “self-splicing fitness (ln)” value (37 °C) is -0.393 ± 0.27.
In the case of CGGAAGCAAUAUUACGCGGU, the “self-splicing fitness (ln)” value is -3.98 ± 0.29 (30 °C) and -2.73 ± 0.22 (37 °C).
With CGGAAGCAAUAUUACGCGUC, the “self-splicing fitness (ln)” value is, setting by setting: (30 °C) -2.62 ± 0.14; (37 °C) -3.1 ± 0.37.
As for CGGAAGCAAUAUUACGCGUG, the “self-splicing fitness (ln)” value (30 °C) is -1.54 ± 0.16 and the “self-splicing fitness (ln)” value (37 °C) was -0.867 ± 0.17.
For CGGAAGCAAUAUUACGCGUU the same measures were -3.9 ± 0.34 and -2.9 ± 0.33.
In the case of CGGAAGCAAUAUUACGCUGA, for the setting “37 °C”, the “self-splicing fitness (ln)” value was -1.21 ± 0.26.
As for CGGAAGCAAUAUUACGGCAG, the “self-splicing fitness (ln)” value (30 °C) is -0.0767 ± 0.11 and the “self-splicing fitness (ln)” value (37 °C) amounted to 0.445 ± 0.13.
Taken in the same sequence, the figures for CGGAAGCAAUAUUACGGCGG were -0.184 ± 0.1 and 0.177 ± 0.13.
For CGGAAGCAAUAUUACGUAUG the same measures were -1.49 ± 0.069 and -0.904 ± 0.083.
Taken in the same sequence, the figures for CGGAAGCAAUAUUACGUGAC were -1.6 ± 0.16 and -2.12 ± 0.35.
Take CGGAAGCAAUAUUACGUGCA: the “self-splicing fitness (ln)” value is -3.23 ± 0.23 (30 °C) and -0.628 ± 0.13 (37 °C).
Taken in the same sequence, the figures for CGGAAGCAAUAUUACGUGCG were -1.64 ± 0.095 and -1.05 ± 0.14.
Take CGGAAGCAAUAUUACGUUCC: the “self-splicing fitness (ln)” value (30 °C) was -2.32 ± 0.48.
Regarding CGGAAGCAAUAUUACGUUCU, the “self-splicing fitness (ln)” value is, setting by setting: (30 °C) -1.91 ± 0.14; (37 °C) -0.77 ± 0.14.
For CGGAAGCAAUAUUACGUUGU the same measures were -3.82 ± 0.22 and -2.88 ± 0.24.
Regarding CGGAAGCAAUAUUACGUUUA, the “self-splicing fitness (ln)” value was -3.07 ± 0.24 (30 °C) and -2.06 ± 0.17 (37 °C).
Taken in the same sequence, the figures for CGGCAGCAAUAUUACGAAAA were -2.23 ± 0.26 and -2.21 ± 0.37.
On to CGGCAGCAAUAUUACGAACG, for which the “self-splicing fitness (ln)” value was -1.11 ± 0.11 (30 °C) and 0.693 ± 0.15 (37 °C).
For CGGCAGCAAUAUUACGACUC the same measures were -0.739 ± 0.097 and -0.759 ± 0.1.
As to CGGCAGCAAUAUUACGAUAC, the “self-splicing fitness (ln)” value is -3.21 ± 0.26 (30 °C) and -2.89 ± 0.31 (37 °C).
Taken in the same sequence, the figures for CGGCAGCAAUAUUACGAUAG were -0.0988 ± 0.079 and -0.126 ± 0.086.
Consider CGGCAGCAAUAUUACGAUGA, for which the “self-splicing fitness (ln)” value is -1.21 ± 0.095 (30 °C) and -1.21 ± 0.12 (37 °C).
Regarding CGGCAGCAAUAUUACGAUUC, the “self-splicing fitness (ln)” value by setting is: (30 °C) -2.62 ± 0.17; (37 °C) -2.3 ± 0.19.
CGGCAGCAAUAUUACGCAAC: the “self-splicing fitness (ln)” value (37 °C) is -2.1 ± 0.26.
As for CGGCAGCAAUAUUACGCAAU, the “self-splicing fitness (ln)” value (30 °C) was -3.47 ± 0.2 and the “self-splicing fitness (ln)” value (37 °C) was -1.77 ± 0.19.
On to CGGCAGCAAUAUUACGCCAA, for which the “self-splicing fitness (ln)” value (30 °C) is -1.61 ± 0.15 and the “self-splicing fitness (ln)” value (37 °C) is -0.921 ± 0.13.
Take CGGCAGCAAUAUUACGCCCG: for the setting “30 °C”, the “self-splicing fitness (ln)” value is -2.32 ± 0.47.
Consider CGGCAGCAAUAUUACGCCUG, for which the “self-splicing fitness (ln)” value reads like this: (30 °C) -0.88 ± 0.24; (37 °C) -1.89 ± 0.23.
